Laboratory results as given in PMC10939407 (Nucleic Acids Research, 2023).

Target: MBP-DHX15-His10 (human, UniProt O43143 1-795)
Assay: pull-down

MBP-DHX15-His10, sequence (O43143 whole entry): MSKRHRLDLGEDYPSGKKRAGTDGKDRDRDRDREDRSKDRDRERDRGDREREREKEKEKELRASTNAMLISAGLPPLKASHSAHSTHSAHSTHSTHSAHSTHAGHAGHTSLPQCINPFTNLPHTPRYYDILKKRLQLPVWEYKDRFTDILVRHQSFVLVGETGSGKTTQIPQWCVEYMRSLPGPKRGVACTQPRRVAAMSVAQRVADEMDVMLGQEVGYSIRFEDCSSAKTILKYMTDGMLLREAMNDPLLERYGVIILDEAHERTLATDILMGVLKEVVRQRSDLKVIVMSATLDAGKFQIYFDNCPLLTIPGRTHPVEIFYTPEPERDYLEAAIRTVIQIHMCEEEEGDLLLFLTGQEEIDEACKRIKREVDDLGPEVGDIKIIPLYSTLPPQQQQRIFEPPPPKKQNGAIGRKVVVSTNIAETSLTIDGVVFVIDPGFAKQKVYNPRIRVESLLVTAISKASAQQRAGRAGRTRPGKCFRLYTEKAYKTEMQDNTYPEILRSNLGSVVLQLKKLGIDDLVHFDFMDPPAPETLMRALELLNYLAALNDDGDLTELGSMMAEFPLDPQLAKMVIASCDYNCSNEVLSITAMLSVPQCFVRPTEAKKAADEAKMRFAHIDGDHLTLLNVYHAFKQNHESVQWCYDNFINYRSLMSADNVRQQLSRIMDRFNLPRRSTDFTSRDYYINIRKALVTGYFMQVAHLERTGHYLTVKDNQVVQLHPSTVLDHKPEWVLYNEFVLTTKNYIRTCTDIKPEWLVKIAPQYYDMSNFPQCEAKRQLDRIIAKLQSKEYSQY

GMKFAEEQLLKHGWTQGKGLGRKENGITQALRVTLKQDTHGVGHDPA (domain or fragment) [ZZ-GPATCH4GP-His7 (G-patch domain of GPATCH4, amino acids 11 to 57)]: binds.
